# Source: the DeepSol protein solubility set
# Experiment: soluble on expression in E. coli; label from the status in PepcDB or PDB records
row,Sequence,soluble on expression in E. coli
1,MKAFDQVNHSLLLQKLHDFGINPLFCNWFHDFLSSRTFSVKVNNHIDPNIHPISSGVPKGSVSGPFLFLIFINSLLLSVPPSISCSAFADDLKVYSHSPPLIQTTIDLITTWSENNKLPLAVHKAALLNKLGFSSNCVLLLAPLINSLVCRLLAASRTGVSTVAHSKTCLLHLGKKNPKTVYKINNLPISPSNIARDLGILTDSKLTFKPHIKKIVSLALLRCKQLLKSFKSLCPEFYCNLFKTYILPLIEYGSAVYSPKPSSSLSTLLEKPLRWYSQKVLQKFNVSYSLYNDRLKSLNLHSIRHRRLKSKLILLYKFCCGTSFLRRKETFFKLSTSSRRPMRIICHNPSSNNFFSDTISFWNAITNNCDTFLSPIHFENLVDNSITRL,not soluble
2,MKAHHILKVTKQYNPTEDLEFNPDLDGELVAGADNLPSVEIQVEKIADRQRQITARVQIPQPVEQVWQVLTNYEALADFIPNLAKSSLLEHPNGGIRLEQVGSQRLLNFKFCARVVLDLEEYFPKEINFQMVEGDFKGFSGNWCLQPYALGNVIGTDLCYTIQVWPKLTMPITIIERRLSQDLRSNLLAIYQRVECLANQSLLEHHHHHH,soluble
3,MKAKTLIDAYEAFCPLDLSMEGDVKGLQMGSLDKDIRKVMITLDIRESTVAEAIKNEVDLIITKHAPIFKPLKDLVSSPQRDILLDLVKHDISVYVSHTNIDIVPGGLNDWFCDLLEIKEATYLSETKEGFGIGRIGTVKEQALEELASKVKRVFDLDTVRLIRYDKENPLISKIAICGGSGGEFYQDAVQKGADVYITGDIYYHTAQEMLTEGLFAVDPGHHIEVLFTEKLKEKLQGWKEENGWDVSIISSKASTNPFSHL,not soluble
4,MKALTARQQEVFDLIRDHISQTGMPPTRAEIAQRLGFRSPNAAEEHLKALARKGVIEIVSGASRGIRLLQEEEEGLPLVGRVAADEPLLAQQHIEGHYQVDPSLFKPNADFLLRVSGMSMKDIGIMDGDLLAVHKTQDVRNGQVVVARIDDEVTVKRLKKQGNKVELLPENSEFKPIVVDLRQQSFTIEGLAVGVIRNGDWL,soluble
5,MKAPSYHVVRGDIATATEGVIINAANSKGQPGGGVCGALYKKFPESFDLQPIEVGKARLVKGAAKHIIHAVGPNFNKVSEVEGDKQLAEAYESIAKIVNDNNYKSVAIPLLSTGIFSGNKDRLTQSLNHLLTALDTTDADVAIYCRDKKWEMTLKEAVARREHHHHHH,soluble
6,MKAPVRVAVTGAAGQIGYSLLFRIAAGEMLGKDQPVILQLLEIPQAMKALEGVVMELEDCAFPLLAGLEATDDPKVAFKDADYALLVGAAPRKAGMERRDLLQVNGKIFTEQGRALAEVAKKDVKVLVVGNPANTNALIAYKNAPGLNPRNFTAMTRLDHNRAKAQLAKKTGTGVDRIRRMTVWGNHSSTMFPDLFHAEVDGRPALELVDMEWYEKVFIPTVAQRGAAIIQARGASSAASAANAAIEHIRDWALGTPEGDWVSMAVPSQGEYGIPEGIVYSFPVTAKDGAYRVVEGLEINEFARKRMEITAQELLDEMEQVKALGLI,soluble
7,MKARKAKEFVFNDLLSMESYCINHYSDYYSKSNFSCNVTQLSKGELVTSSICAPINDAHLEIFKSNQTILYEEEANQNSVAFCWINSNGEQAQTNTIISGHKMMDLSIAGFNRLNKTGGNVWDIVGANTQLCCMSLKWEKVKEKINQMNAYNAFAKLEECIGIDSNSSASIQLKSLFERHFTKGLRESEAFYDLAIATLEEPCDLEILTERSDKTELIEDLVKLLYEDREGMPPLTISEITKYLNTEKESLSIACRTNFDMPILDLIKSIRLEQVKKSYLNPHVPKGLKNFTKKQNALYYGFKNWTTFQKFYHQSFQESPDETINKSSKASVLVTDLFTRRS,not soluble
8,MKARSKKSVGIVALALLMGKVYAAPTPAACPDVSVIKQHQEGQGFVYTAPAPNNQQWRGENPRGDAKDINSIAFKSANIRNRSAITGNAFVACDYEGNSSAGIRMSLETLKVATPVGKAWNGLSCSESNPSACTFEY,not soluble
9,MKAVIFIMDGLGDRPNKDGNTPLKEAKTPVMDKMAKDGICGLMNAVDVGVRPGSDTAHLAILGYDPYTTYTGRGPFEACGVGVTVKPGDIAFRCNFSSVNENFIVTDRRAGRIEDTSELEKELDGLKIDDIDIIFKESGGYRAALVLRGPGLSDKISDADPKKEGKRVKEIHPLDNSKEAKKTAEIVNKLLKIAYEKLDKHPVNEERRKQNLPVANMIVPRGVGQVPEIMQFSEKTGLKGACIAGTGLIKGIAKMVGLDVIDVEGCDGTPNSDLMAKACAIVETLKDYDFILVNVKGADEAGHDGNYELKKEIIEKIDEMLDYITKNIDKDEVYIAMSGDHSTPIEEMDHSADPLPILIWGKSVRVDDVEKFDEFSTYKGGLNWIKGTNIMPILMDLMSIAKKYGA,not soluble
